# Measurements reported in publication PMC7445300.
# Target: GST-DNMT1-N (UniProt P26358)
# Test: pull-down; GST-tagged proteins on Glutathione Sepharose beads incubated with acid-extracted core histones from HEK293T cells transfected with FLAG-H3 or FLAG-H2B and UHRF1 (S phase); 25 mM Tris-HCl pH 8.0, 150 mM NaCl, 1% NP-40, 2 mM EDTA, 1 mM DTT, 4 °C, 3 h; WB with anti-FLAG
row,fold enrichment of the ubiquitinated histone in the pull-down [fold],Substance
1,4.9,ubiquitinated FLAG-H2B (from UniProt P0CG48 1-76)
2,20,ubiquitinated FLAG-H3 (from UniProt P0CG48 1-76)
